The values that follow come from the supplement of paper PMC12042874.

± gives the uncertainty stated by the source.

The data set can be described thus: amyloid nucleation score (Sup35N fusion, yeast selection) (log enrichment); library NNK1; higher = more nucleation; inactive = no reads after selection. In outline: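 Using DiMSum, nucleation scores were taken as the log enrichment of output over input reads, centred on the mode score of non-aggregating sequences. The input and output reads came from Illumina sequencing of plasmid inserts, with sequences under 100 input reads excluded. The yeast were psi-negative, expressed Sup35N fused to peptides of 20 random codons, were induced with 100 μM copper sulfate for 24 hours, and were grown 7 days at 30°C on medium lacking adenine and uracil.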
For FSTIGCKSMAVNCSFWYWSR, the amyloid nucleation score amounted to 6.196 ± 0.047.

In the case of FSVGYDNGMDNM, the amyloid nucleation score came out at 0.426 ± 0.29.

With FSVRNSSVILEHGVWLNCQG, the amyloid nucleation score turned out to be 0.03 ± 0.97.

With FTCSTYNCWGVHS, the amyloid nucleation score turned out to be 1.26 ± 0.37.

Consider FTDSTRFGSYLLSSAMFPTM, for which the amyloid nucleation score is -1.65 ± 2.7.

Substance FTIVLELFRNFSRSKVYEDV displayed an amyloid nucleation score of -0.756 ± 2.4.

Consider FTLHVSFRGSDDIKSVFYCS, for which the amyloid nucleation score came out at 3.29 ± 0.11.

FTLLTAPGMATHLRTGMRSR gave an amyloid nucleation score of 0.51 ± 0.56.

As to FTLSPLGCVYYDT, the amyloid nucleation score came to 0.712 ± 0.72.

FTMSTISCSGSDTIVID came in with an amyloid nucleation score of -0.503 ± 0.25.

For FTNNVLNINVRG, the amyloid nucleation score was determined as 0.253 ± 1.2.

FTSPLKNHHLFGFAS showed an amyloid nucleation score of -0.345 ± 0.6.

In turn, FVDSFVNIWLIKTFSRIVVD had an amyloid nucleation score of 0.161 ± 0.3.

On to FVFGTFA, for which the amyloid nucleation score worked out at 0.485 ± 0.59.

The substance FVKSKGWVCAGFLYIASL returned an amyloid nucleation score of 0.53 ± 0.75.

FVLADYVGAARVRGTTLFAE: the amyloid nucleation score is 0.406 ± 0.53.

Turning to FVLSNIPVAYLANANNAFHF, the amyloid nucleation score worked out at 0.677 ± 0.52.

Take FVMHSSSM: the amyloid nucleation score is -0.34 ± 0.53.

Substance FVRCSAKMDLWSVLTVCSFC gave an amyloid nucleation score of 3.2 ± 0.12.

Take FVSSVGKSEQVPSTEFFCVS: the amyloid nucleation score was 0.174 ± 1.5.

FVTDCLHYRRTWQLGC: the amyloid nucleation score was determined as 0.419 ± 0.28.

For the substance FVVQPYHYKSY, the amyloid nucleation score was 0.264 ± 0.34.

With FVVSDRGWTQALRHYPDTRM, the amyloid nucleation score was -0.25 ± 0.34.

On to FWAHMMRIASNYKFSLYL, for which the amyloid nucleation score entry is “inactive”.

Consider FWDVVKLNGGSGMALFYAGL, for which the amyloid nucleation score stood at 0.145 ± 1.

As to FWGWLRPWLLKSSEDPLKLE, the amyloid nucleation score is -0.617 ± 0.57.

In turn, FWHGSCSLDNDFHS registered an amyloid nucleation score of -0.442 ± 0.51.

FWPCFSWYC yielded an amyloid nucleation score of 2.16 ± 0.15.

The substance FWVKVLY showed an amyloid nucleation score of -0.654 ± 0.37.

Turning to FYAVVFYYDTDSAARCRFC, the amyloid nucleation score amounted to 6.32 ± 0.075.

For the substance FYCLSNKFFYIVCRNALQSS, the amyloid nucleation score was -0.324 ± 0.35.

Turning to FYDLFNVNIGLGDFKSVCFL, the amyloid nucleation score is 2.66 ± 0.2.

Take FYGIARNVLRVGESMARYT: the amyloid nucleation score was -0.059 ± 1.2.

Consider FYIMTLGYCSWFSVGKRLSP, for which the amyloid nucleation score was -0.551 ± 0.43.

In the case of FYLHRAIWPSYHVSRLVRHR, the amyloid nucleation score was -0.979 ± 2.7.

On to FYLVATCVAFFRLHWFACN, for which the amyloid nucleation score is -0.218 ± 0.36.

With FYRNTGFMW, the amyloid nucleation score is -1.42 ± 2.7.

FYSALLGQTRYSRSSRSSTE: the amyloid nucleation score entry was “inactive”.

Substance FYSFTGGAVGLGLC gave an amyloid nucleation score of 1.11 ± 0.49.

FYWHHWTNLAIIVEYILGEW registered an amyloid nucleation score of 0.571 ± 1.2.

Consider GACGGKFRVYGKGLILWVRS, for which the amyloid nucleation score amounted to 0.253 ± 0.37.

Substance GAFCWRLVGEGLFVALDVCE registered an amyloid nucleation score of 0.458 ± 0.87.

With GAGLYCR, the amyloid nucleation score was 0.376 ± 0.52.

The substance GAGRNSWRCCNLLFSEDMIG had an amyloid nucleation score of 2.79 ± 0.088.

Regarding GARQHATVAREAATLCF, the amyloid nucleation score worked out at 0.094 ± 1.4.

Consider GASWNCAQYRMMD, for which the amyloid nucleation score was -0.338 ± 1.7.

GATVNSVWSVPKQVTWSGMC registered an amyloid nucleation score of -0.138 ± 0.32.

In turn, GAVDSYLQRLFGLFRWDTLK gave an amyloid nucleation score of -0.375 ± 0.64.

Regarding GAYCFSVCNHREL, the amyloid nucleation score is -0.365 ± 1.1.

For the substance GCALPQYKILWSFRFYWVGN, the amyloid nucleation score entry was “inactive”.

GCCSVFQNCCSSRVYIFVPI showed an amyloid nucleation score of 4.87 ± 0.082.

In the case of GCDCDQVLKYHARCMYVKDE, the amyloid nucleation score result is “inactive”.

GCDGATVAGGTNYPDQMYSF: the amyloid nucleation score was 0.786 ± 0.74.

Substance GCFIVR had an amyloid nucleation score of -0.768 ± 0.98.

For the substance GCGGTGAFTVQGKRQFIAGR, the amyloid nucleation score was -0.031 ± 0.27.

Take GCIGAQRLNCLWSTRRYLVY: the amyloid nucleation score was 5.42 ± 0.06.

As for GCLRTWQITLVEYNCMTLRI, the amyloid nucleation score worked out at 0.215 ± 1.2.

On to GCTLLESCVYGKSVRSYHQW, for which the amyloid nucleation score was determined as 0.253 ± 0.52.

The substance GDLKSILVVLFSSLCVPTLR had an amyloid nucleation score of 1.26 ± 0.21.

Turning to GDNMDEEARWRLPVRFDRAS, the amyloid nucleation score is -0.013 ± 1.2.

The substance GEFAYSMVQGHYRIMLMSLK yielded an amyloid nucleation score of 1.49 ± 0.68.

The substance GEIITWLSGIPLDTVCILRM gave an amyloid nucleation score of -0.229 ± 0.25.

In turn, GELLKMNVQIRYMGIWVNIL had an amyloid nucleation score of 3.46 ± 0.18.

Take GERTCSYIYGLFTIFYTGLR: the amyloid nucleation score is -0.048 ± 1.3.

Substance GEYCKSLSTE gave an amyloid nucleation score of 1.01 ± 0.93.

For GFCFNECFLAGV, the amyloid nucleation score was -0.285 ± 0.59.

With GFCNYMSFCFHIDASE, the amyloid nucleation score was 7.587 ± 0.056.

As to GFDKMMCWYYGLTVIVMDGS, the amyloid nucleation score is -0.076 ± 0.25.

Take GFEWVRVYWWGSYVGKRMGT: the amyloid nucleation score is -0.219 ± 0.91.

GFFVQNRTWQIH gave an amyloid nucleation score of -0.858 ± 0.45.

For GFGGSGLTWGSRVCGV, the amyloid nucleation score was -1.5 ± 2.4.

In turn, GFGQAGGPSGESY came in with an amyloid nucleation score of 0.722 ± 0.75.

With GFIKPILEQGRYHNESRVLL, the amyloid nucleation score turned out to be 0.243 ± 0.58.

In the case of GFKPWVVCWTWQAAPKVRSP, the amyloid nucleation score is 0.702 ± 0.73.

For the substance GFLTVNYWHSEV, the amyloid nucleation score came to 0.065 ± 0.21.

GFMERLASIYTFFWGVDSK displayed an amyloid nucleation score of -0.339 ± 1.2.

Substance GFNLFCATESYYFFSLMVMG returned an amyloid nucleation score of -0.13 ± 0.25.

In turn, GFPTPEPEDNVARSVRWIYS gave an amyloid nucleation score of -1.47 ± 1.

Consider GFPVVAEHVVEFKLV, for which the amyloid nucleation score worked out at 0.093 ± 0.7.

Substance GFSSVPEGDSINPR came in with an amyloid nucleation score of -0.09 ± 0.54.

As to GFTGARVSTQHRLRGN, the amyloid nucleation score is -0.245 ± 0.84.

In turn, GFWSRSGSYQLICIYFGGYG registered an amyloid nucleation score of -0.296 ± 0.4.

Substance GFYRAERYSRFMRAVGRLSN displayed an amyloid nucleation score of -0.771 ± 0.76.

Substance GFYVAETRKVRLCMARWYCG had an amyloid nucleation score of 0.368 ± 0.47.

GGELKARNKREGNQSSA returned an amyloid nucleation score of 0.058 ± 0.72.

Consider GGFFYMWRYRLCRLGKFGAP, for which the amyloid nucleation score was -0.76 ± 0.6.

On to GGHYAVQNPMRVYAYGH, for which the amyloid nucleation score was -0.667 ± 1.

Take GGKESLFRCFADRSCFMYI: the amyloid nucleation score was -0.724 ± 2.4.

Turning to GGLKQFTGSRTHGLWSNGQM, the amyloid nucleation score is -0.337 ± 0.89.

Take GGLQKMVPNSNLCFLEDP: the amyloid nucleation score is -0.713 ± 1.7.

Take GGLSNSLSTAVQDW: the amyloid nucleation score is -0.995 ± 0.61.

GGLVRSKFYFTL had an amyloid nucleation score of 0.19 ± 0.25.

Take GGPDTMEMGSFGDARATDAG: the amyloid nucleation score is 1.03 ± 0.93.

For GGRNF, the amyloid nucleation score is -0.696 ± 0.57.

In turn, GGSFKGYSLIV returned an amyloid nucleation score of 0.678 ± 0.66.

As to GGTGMVGRDANTSFIFWDIV, the amyloid nucleation score was -0.099 ± 0.36.

Take GGTSIPVVGNQGMIGYVPCD: the amyloid nucleation score was found to be 0.825 ± 0.43.

Substance GGVVCRVKGKNRFPLVSWQF showed an amyloid nucleation score of -0.565 ± 0.61.

Substance GGWFIINRHHLCYSRNLPPE registered an amyloid nucleation score of 0.271 ± 0.69.

GGYGLYCDHRYVTTTWWHSS came in with an amyloid nucleation score of 0.926 ± 0.66.

GHAEIYMWTLGIPSRLFGAI registered an amyloid nucleation score of 0.049 ± 0.45.

GHGWITMVTDCR had an amyloid nucleation score of 1.87 ± 0.4.
